Legend:
[1] = biological target: T1, A1-A2 domain of human MICB with C-terminal 6x-His tag (monomer) (human, UniProt Q29980 24-205); experiment: Octet BLI, response against concentration (legend: monomeric ligands; axis on the sheet: nM Fc-iNKG2D.AF)
T1 construct: range 24-205; also called MIC-His ligand
T1 sequence: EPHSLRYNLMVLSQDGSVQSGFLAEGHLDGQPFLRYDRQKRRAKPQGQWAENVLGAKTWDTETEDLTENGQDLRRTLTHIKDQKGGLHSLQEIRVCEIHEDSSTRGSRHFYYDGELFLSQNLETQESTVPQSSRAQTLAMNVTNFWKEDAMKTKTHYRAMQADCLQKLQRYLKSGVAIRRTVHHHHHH

[2] = biological target: T2, A1-A2 domain of human ULBP3 with C-terminal 6x-His tag (monomer) (human, UniProt Q9BZM4 30-212); experiment: Octet BLI, Fc-iNKG2D.AF on AHC tips, monomeric ligand (FIG. 3A)
T2 construct: range 30-212; also called MIC-His ligand
T2 sequence: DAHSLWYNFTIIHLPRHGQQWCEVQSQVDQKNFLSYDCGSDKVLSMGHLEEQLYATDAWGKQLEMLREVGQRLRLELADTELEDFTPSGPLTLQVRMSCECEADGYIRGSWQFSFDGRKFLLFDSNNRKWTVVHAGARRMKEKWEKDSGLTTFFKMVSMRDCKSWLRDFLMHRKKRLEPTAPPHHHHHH
Description: (§1) Library design and phage panning performed was as described for iNKG2D. […] Data are representative of two experiments. […] Error bars represent ±SD of technical replicates.

[3] = biological target: T3, A1-A2 domain of human MICA*001 with C-terminal 6x-His tag (monomer) (human, UniProt Q29983 24-205); experiment: as above
T3 construct: range 24-205; also called MIC-His ligand
T3 sequence: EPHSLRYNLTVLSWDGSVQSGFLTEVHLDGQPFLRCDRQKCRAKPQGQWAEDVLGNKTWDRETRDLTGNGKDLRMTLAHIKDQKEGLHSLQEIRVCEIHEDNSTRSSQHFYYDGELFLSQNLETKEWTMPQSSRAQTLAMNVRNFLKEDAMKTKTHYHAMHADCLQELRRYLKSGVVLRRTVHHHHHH
Description: as §1

B1: Fc-iNKG2D.AF (NKG2D ectodomain Y152A/Y199F fused to the C-terminus of human IgG1 Fc) (Fc fusion)
chain: IEGRFLNSLFNQEVQIPLTESYCGPCPKNWICYKNNCYQFFDESKNWYESQASCMSQNASLLKVYSKEDQDLLKLVKSAHWMGLVHIPTNGSWQWEDGSILSPNLLTIIEMQKGDCALYASSFKGFIENCSTPNTYICMQRTV
notes: range 78-216; also called Fc-NKG2D.AF; not shown: human IgG1 Fc
binding result [1]: binds
binding result [2]: no binding
binding result [3]: no binding

From patent US20240287202A1 (XYPHOS BIOSCIENCES, published 2024)
